Laboratory results from the RNAGym collection of RNA variant scans (doi:10.1073/pnas.2313332121).
Variants at the floor of the assay were thinned out.

B1: TPR 5TU (parent)
chain: GGAUCUUCUCGAUCUAACAAAAAAGACAAAUCUGCCACAAAGCUUGAGAGCAUCUUCGGAUGCAGAGGCGGCAGCCUUCGGUGGCGCGAUAGCGCCAACGUUCUCAACUAUGACACGCAAAACGCGUGCUCCGUUGAAUGGAGUUUAUCAUG

Variants of: B1
Test: polymerase ribozyme fitness, log enrichment relative to wild type (log ratio); higher = more active; in vitro selection for triplet polymerase activity
In short: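 Only genotypes with ≥10 input reads and ≥1 read per output were kept after Illumina sequencing of input and output libraries. These libraries were PCR-built, transcribed mutants of each subunit of a heterodimeric triplet polymerase ribozyme, each put through one triplicate in vitro selection round with frozen incubation at −7 °C, gel excision of extended constructs, streptavidin-bead capture and RT-PCR. Fitness is a logarithmic ratio of genotype enrichment to wild-type enrichment, from inverse-variance-weighted replicate averages, with the logarithm in base 2.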

Variant | polymerase ribozyme fitness (log ratio)
C32G G42U U55A U61A C85A C95A A107U | ≤ -4.2
U33C C36U C54A C72U G84U C85A U148G | ≤ -4.2
U33A A115G U139G | ≤ -4.2
U33C U56G C93U | ≤ -4.2
U31G G84A A89G | -0.747
C32U A49U C51U C75U U102C U146G | ≤ -4.2
U33G A49U A91G G152A | ≤ -4.2
U31G U61A A66G U90C U101C | ≤ -4.2
C32A C87A | ≤ -4.2
C32U C87G A142U | ≤ -4.2
C32G U53C C76A | -4.09
U31C G92C G126U | 0.158
C32G A91C G117U A137U | ≤ -4.2
C32A C36G A47G C72G A89G A91G | ≤ -4.2
C32G G50U C79G G88U G94C U101C C125A | ≤ -4.2
U31C U55A G86C | -2.47
U31C U44A G94C C96G U102G U151C | ≤ -4.2
C32G G59C C96A U144A | ≤ -4.2
C32G C87U | -3.63
U31G C32U C72A C123G G152A | ≤ -4.2
U31G C38G U101G U139C U146G | -4.03
C32U U56A G58A G68A C76A C93A | ≤ -4.2
U33G G50U U90G C96G | -3.98
U31G G59U A138U | ≤ -4.2

Variant | polymerase ribozyme fitness (log ratio)
C32G C87A A115C | ≤ -4.2
C32A A40U G62U C85G U146A | ≤ -4.2
U31G C54G | -1.02
C32A C54U C93A A110G A137G G140C | -4.17
U33A C69G C87G | ≤ -4.2
C32G A41C C75U | ≤ -4.2
C32G C87G C93U C99G U104A C123U | ≤ -4.2
C32G C35U C72G A106C | ≤ -4.2
U31C C116A | 1.96
C32G G59A G83A A98C A110G | -4.09
U31G C79U U90G A106G C108A A137C | ≤ -4.2
U31G A39G U55A A66C G68C C69U G117A | ≤ -4.2
U31G C54A G88A G126A G141A | ≤ -4.2
U33A G50A U53A C85G C96G A97U C114G U139A | ≤ -4.2
C32G U33A C43G G81U G84A A142G | ≤ -4.2
C32G A39G G58U G143C | -4.1
U31G C54U U109G A137G | -2.71
C32U U44A G50U U78C G83U A120G | ≤ -4.2
C32U U56A A91U A113U C118A G143C C149U | ≤ -4.2
C32U A52G U55G G94C | -3.43
C32U G58C C63A | -3.84
C32U C96G | -1.58
U33G A52G U130G C131U G133U U146A | ≤ -4.2
C32A C51G C72U C85G A97C U101G | ≤ -4.2

Variant | polymerase ribozyme fitness (log ratio)
C32U G68A C85A G94A U139A A147C | ≤ -4.2
C32G G58A G84A A107G G124C U130G | ≤ -4.2
U33A G50C U56A C76A G81C | ≤ -4.2
U33A C43A C76U G92A G117U | -3.86
C32G G50A U61A G62C G71A A91U G94C A138C | ≤ -4.2
U31G G83A A138G | ≤ -4.2
C32G A49C A52C G143U | ≤ -4.2
U31G G81U C87G U104G G128C | ≤ -4.2
C32G G46A A52G U53A A60U C87A A89U A142U | ≤ -4.2
U31C U56G C123A G136C | -2.61
U33A U56A G94A | ≤ -4.2
U31C U45A A97U G117A | -4.09
U31G U53A A91G A122G | -3.62
C32G U55A C79A C116G C149A | ≤ -4.2
U31C U55A A97G | 1.27
C32G A49C U53A C85U G86U C99A A138G A150G | -4.03
C32U U45A C54A G84A C85A G92A C93A | ≤ -4.2
C32G G42A U77C G84U | ≤ -4.2
C32A G65A G88A C118U A120C A142G U144C | ≤ -4.2
C32U A37G G46U U77C G86C A115G A119U | ≤ -4.2
C32U U77G C103G A138U | ≤ -4.2
U33G C95U | -2.22
U31C G34A C69G C85U U134C | -1.39
U31C U45A G70C G92C | ≤ -4.2

Variant | polymerase ribozyme fitness (log ratio)
C32U G59A | -1.99
U31G A37C U61A G126C U145C | ≤ -4.2
C32G A39C A41C A52U G94C C116G | ≤ -4.2
U33A U145C | -4
U33A C43U A60U C93A C96U U151C G152A | ≤ -4.2
U33C C85U A119G | -3.71
U31G A89G C95U | -1.41
U33A A52G A60U G84A C95G U109G A115U G133U G140C U146G | ≤ -4.2
U33C A122G U127G | ≤ -4.2
U31G C35U C57U G117A | -0.0701
U33A A60C G74A A137C A150U | ≤ -4.2
C32U U55A C63U C118A | -3.08
C32U G94U C116G | -3.95
U33C C36U U56A G84U U90C A110C G143C | ≤ -4.2
C32G C87A A107G | ≤ -4.2
U33A A49C G50C C76A C85G A138U U151C | ≤ -4.2
C32G U53A C79U G140U | -4.06
U31G A91U | -4.03
U33C G71C | ≤ -4.2
U33A C72U A73G G124U | -3.23
U33G A49C C75G G92A U101G C105A | -4.15
U33A G83A C95U U151C | ≤ -4.2
U31G C57G G88U | ≤ -4.2
U31G G59A | 0.625

Variant | polymerase ribozyme fitness (log ratio)
U33A C38G A52U C87G G136A | ≤ -4.2
U31C G70A A98G G124C | ≤ -4.2
U33A G58C G92A G136U | ≤ -4.2
U31G A39C G50A G92U G117A G140U U145A A147G | ≤ -4.2
U31G | 0.749
U31G G50U U56G | -1.97
U33A U44G A107G A122G C132U | ≤ -4.2
U31G A52C G83A | -2.81
U31G U56A | 0.083
U33A | -3.29
U33C | -1.48
U33G | -2.4
C32A C85G | ≤ -4.2
U31G C57A G136A G140A U146A | -3.1
C32U U82C | -1.74
C32A G67A G83A | ≤ -4.2
U33G C35U G59U C75G G128A U139A | -4.05
C32G U82G | ≤ -4.2
U33A G50A A64C G83C | ≤ -4.2
C32U G46A C51G U53C G67C G86U U101G A138U | ≤ -4.2
C32U G34C C51U U130G U145A | ≤ -4.2
C32U C57U A121U C125U | -1.52
C32G C76G G84C C118U C132G G133C | ≤ -4.2
U33G C43U A49C U77G A91U U101A C105G | ≤ -4.2

Variant | polymerase ribozyme fitness (log ratio)
U33A C75G U78A U101A G152U | -4.02
U33G C38A C93U A113U G136A A138U | ≤ -4.2
C32G G59C A66G U102A | ≤ -4.2
U33C A37G C63A C87G U111G U151A | ≤ -4.2
U33C A41C | -3.48
U33G G50C U56A U134G U145C | ≤ -4.2
C32G G58C G94U | -3.86
C32U A49C A52G G58U G62C C131G | ≤ -4.2
U31C G143A | 0.14
U33C C51U G59C C63A A120C C125G U134G | ≤ -4.2
U33A U45A G68U C87A U127C A137U | ≤ -4.2
C32U A52C U55G C57A | -3.11
C32G U56A C57A C114G | -4.19
C32U A37U U56C C95U U145G U148G | ≤ -4.2
U31C G34A U78C G83C U145G | ≤ -4.2
U31C G83C U111C G152A | -3.66
U31G G71U | ≤ -4.2
U31G G50A C51U G62C G68U C95U U101G A106C | ≤ -4.2
C32U G59C A89C G94C | -3.87
C32G C57U G80C G86C G152U | ≤ -4.2
U33G G50U C51G A52C C76A G92A C93A A98U | ≤ -4.2
U31G C85U | 0.998
U31G A40U G48A G84A C87U A119U | ≤ -4.2
C32G G59C U61A U82A G84U U134G G140C | ≤ -4.2

Variant | polymerase ribozyme fitness (log ratio)
C32U A52C U55G C118U | ≤ -4.2
C32A C38U U55A G94A G126C | -3.92
U31G G94U A119U | -0.547
C32U G50U C95A C131U G143A U151C | ≤ -4.2
U31C G94C C105A | -1.61
C32U U55G | -1.52
C32U U55A | -1.62
U31G C43G U53A G83U | ≤ -4.2
C32U G74A C93U | -0.21
U31G C99U U145G | -0.861
U33G C54U C96G A147U | -3.24
C32A A37C C95U | ≤ -4.2
C32G C93G | ≤ -4.2
C32A A37C | ≤ -4.2
U33G A39G G62U G92A A122U U134A | ≤ -4.2
C32U G59C G84A | -1.81
U33G A41C C43U G50A G152U | -4.07
U31G A52C A64U C75G U90C C99U U134G | ≤ -4.2
C32A U77G G88A G126C G143U | ≤ -4.2
C32G C36U C69U | ≤ -4.2
U31C G71A G86C C118A U151G | ≤ -4.2
C32G G50C C51U G88A A110G | -4.19
C32U G46U C103G U104G A107C G140C | ≤ -4.2
